Substrate in this data set: CCCCn1cc[n+](Cc2cc(=O)oc3cc(C)cc(C)c23)c1
The settings on record: Homo sapiens.

Description: Activity of human serum PON1 using paraoxon as substrate by Lineweaver-Burk plot analysis

B1: Serum paraoxonase/arylesterase 1 (Homo sapiens), P27169 (protein)
chain: MAKLIALTLLGMGLALFRNHQSSYQTRLNALREVQPVELPNCNLVKGIETGSEDLEILPNGLAFISSGLKYPGIKSFNPNSPGKILLMDLNEEDPTVLELGITGSKFDVSSFNPHGISTFTDEDNAMYLLVVNHPDAKSTVELFKFQEEEKSLLHLKTIRHKLLPNLNDIVAVGPEHFYGTNDHYFLDPYLQSWEMYLGLAWSYVVYYSPSEVRVVAEGFDFANGINISPDGKYVYIAELLAHKIHVYEKHANWTLTPLKSLDFNTLVDNISVDPETGDLWVGCHPNGMKIFFYDSENPPASEVLRIQNILTEEPKVTQVYAENGTVLQGSTVASVYKGKLLIGTVFHKALYCEL
For B1, the Km (commonly the concentration of substrate that gives half-maximal velocity) is 40.6 µM.

The values above are taken from ChEMBL document CHEMBL3758119, “Functionalized imidazolium and benzimidazolium salts as paraoxonase 1 inhibitors: Synthesis, characterization and molecular docking studies” (Bioorg Med Chem, 2016).
